# Experimental data reported in patent US11653679B2, “High-purity steviol glycosides” (PureCircle Sdn Bhd, priority 2014, dated 2023).
# Positions count from the first letter of the chain named.
# B1: UGT76G1var50: UGT76G1 variant, mutations F22Y_V310I_S375M_F377C (protein, UniProt Q6VAB4 1-458, looked up, variant F22Y V310I S375M F377C)
# UDP-glycosyltransferase 76G1: MENKTETTVRRRRRIILFPVPYQGHINPILQLANVLYSKGFSITIFHTNFNKPKTSNYPHFTFRFILDNDPQDERISNLPTHGPLAGMRIPIINEHGADELRRELELLMLASEEDEEVSCLITDALWYFAQSVADSLNLRRLVLMTSSLFNFHAHVSLPQFDELGYLDPDDKTRLEEQASGFPMLKVKDIKSAYSNWQILKEILGKMIKQTKASSGVIWNSFKELEESELETVIREIPAPSFLIPLPKHLTASSSSLLDHDRTVFQWLDQQPPSSVLYVSFGSTSEVDEKDFLEIARGLVDSKQSFLWVIRPGFVKGSTWVEPLPDGFLGERGRIVKWVPQQEVLAHGAIGAFWTHSGWNSTLESVCEGVPMIFMDCGLDQPLNARYMSDVLKVGVYLENGWERGEIANAIRRVMVDEEGEYIRQNARVLKQKADVSLMKGGSSYESLESLVSYISSL
# B2: UGT76G1var51: UGT76G1 variant, mutations K303G_S357C_S389E_V396F (protein, UniProt Q6VAB4 1-458, looked up, variant K303G S357C S389E V396F)
# UDP-glycosyltransferase 76G1: B1 UDP-glycosyltransferase 76G1 with Y22F, K303G, I310V, S357C, M375S, C377F, S389E, V396F
# B3: UGT76G1var52: UGT76G1 variant, mutations D301N_I373L_F377C_I407V (protein, UniProt Q6VAB4 1-458, looked up, variant D301N I373L F377C I407V)
# UDP-glycosyltransferase 76G1: B1 UDP-glycosyltransferase 76G1 with Y22F, D301N, I310V, I373L, M375S, I407V
# B4: UGT76G1var53: UGT76G1 variant, mutations R334K_A352G_P382M_S389E (protein, UniProt Q6VAB4 1-458, looked up, variant R334K A352G P382M S389E)
# UDP-glycosyltransferase 76G1: B1 UDP-glycosyltransferase 76G1 with Y22F, I310V, R334K, A352G, M375S, C377F, P382M, S389E
# B5: UGT76G1var54: UGT76G1 variant, mutations E229A_T284L_R334K_Q342E (protein, UniProt Q6VAB4 1-458, looked up, variant E229A T284L R334K Q342E)
# UDP-glycosyltransferase 76G1: B1 UDP-glycosyltransferase 76G1 with Y22F, E229A, T284L, I310V, R334K, Q342E, M375S, C377F
# B6: UGT76G1var55: UGT76G1 variant, mutations I295M_Q342E_V366I_N409R (protein, UniProt Q6VAB4 1-458, looked up, variant I295M Q342E V366I N409R)
# UDP-glycosyltransferase 76G1: B1 UDP-glycosyltransferase 76G1 with Y22F, I295M, I310V, Q342E, V366I, M375S, C377F, N409R
# B7: UGT76G1var56: UGT76G1 variant, mutations L246F_A352G_S357N_Q432E (protein, UniProt Q6VAB4 1-458, looked up, variant L246F A352G S357N Q432E)
# UDP-glycosyltransferase 76G1: B1 UDP-glycosyltransferase 76G1 with Y22F, L246F, I310V, A352G, S357N, M375S, C377F, Q432E
# B8: UGT76G1var2: UGT76G1 variant, mutations S274G_T284I_L379G (protein, UniProt Q6VAB4 1-458, looked up, variant S274G T284I L379G)
# UDP-glycosyltransferase 76G1: B1 UDP-glycosyltransferase 76G1 with Y22F, S274G, T284I, I310V, M375S, C377F, L379G
# B9: UGT76G1var57: UGT76G1 variant, mutations S241I_T263S_L379G_A385T (protein, UniProt Q6VAB4 1-458, looked up, variant S241I T263S L379G A385T)
# UDP-glycosyltransferase 76G1: B1 UDP-glycosyltransferase 76G1 with Y22F, S241I, T263S, I310V, M375S, C377F, L379G, A385T
# B10: UGT76G1var58: UGT76G1 variant, mutations S357C_S375M_N409R_Q425E (protein, UniProt Q6VAB4 1-458, looked up, variant S357C S375M N409R Q425E)
# UDP-glycosyltransferase 76G1: B1 UDP-glycosyltransferase 76G1 with Y22F, I310V, S357C, C377F, N409R, Q425E
# B11: UGT76G1var59: UGT76G1 variant, mutations I335V_K393G_V394I_Y397Q (protein, UniProt Q6VAB4 1-458, looked up, variant I335V K393G V394I Y397Q)
# UDP-glycosyltransferase 76G1: B1 UDP-glycosyltransferase 76G1 with Y22F, I310V, I335V, M375S, C377F, K393G, V394I, Y397Q
# B12: UGT76G1var60: UGT76G1 variant, mutations E231A_L243A_V279I_S357N (protein, UniProt Q6VAB4 1-458, looked up, variant E231A L243A V279I S357N)
# UDP-glycosyltransferase 76G1: B1 UDP-glycosyltransferase 76G1 with Y22F, E231A, L243A, V279I, I310V, S357N, M375S, C377F
# B13: UGT76G1var61: UGT76G1 variant, mutations I43V_F265I_Q266S_L379A (protein, UniProt Q6VAB4 1-458, looked up, variant I43V F265I Q266S L379A)
# UDP-glycosyltransferase 76G1: B1 UDP-glycosyltransferase 76G1 with Y22F, I43V, F265I, Q266S, I310V, M375S, C377F, L379A
# B14: UGT76G1var62: UGT76G1 variant, mutations L243P_P272A_V394I_V396F (protein, UniProt Q6VAB4 1-458, looked up, variant L243P P272A V394I V396F)
# UDP-glycosyltransferase 76G1: B1 UDP-glycosyltransferase 76G1 with Y22F, L243P, P272A, I310V, M375S, C377F, V394I, V396F
# B15: UGT76G1var63: UGT76G1 variant, mutations F314S_R334H_Q342K_L379G (protein, UniProt Q6VAB4 1-458, looked up, variant F314S R334H Q342K L379G)
# UDP-glycosyltransferase 76G1: B1 UDP-glycosyltransferase 76G1 with Y22F, I310V, F314S, R334H, Q342K, M375S, C377F, L379G
# B16: UGT76G1var64: UGT76G1 variant, mutations F22L_A239I_R334H_I407V (protein, UniProt Q6VAB4 1-458, looked up, variant F22L A239I R334H I407V)
# UDP-glycosyltransferase 76G1: B1 UDP-glycosyltransferase 76G1 with Y22L, A239I, I310V, R334H, M375S, C377F, I407V
# B17: UGT76G1var65: UGT76G1 variant, mutations A33G_A239V_P382M_Q425E (protein, UniProt Q6VAB4 1-458, looked up, variant A33G A239V P382M Q425E)
# UDP-glycosyltransferase 76G1: B1 UDP-glycosyltransferase 76G1 with Y22F, A33G, A239V, I310V, M375S, C377F, P382M, Q425E
# B18: UGT76G1var66: UGT76G1 variant, mutations F265L_V310I_V366I_A385T (protein, UniProt Q6VAB4 1-458, looked up, variant F265L V310I V366I A385T)
# UDP-glycosyltransferase 76G1: B1 UDP-glycosyltransferase 76G1 with Y22F, F265L, V366I, M375S, C377F, A385T
# B19: UGT76G1var3: UGT76G1 variant, mutations I295T_S357C_V366I (protein, UniProt Q6VAB4 1-458, looked up, variant I295T S357C V366I)
# UDP-glycosyltransferase 76G1: B1 UDP-glycosyltransferase 76G1 with Y22F, I295T, I310V, S357C, V366I, M375S, C377F
# B20: UGT76G1var67: UGT76G1 variant, mutations E224D_F314S_S375R_Y397E (protein, UniProt Q6VAB4 1-458, looked up, variant E224D F314S S375R Y397E)
# UDP-glycosyltransferase 76G1: B1 UDP-glycosyltransferase 76G1 with Y22F, E224D, I310V, F314S, M375R, C377F, Y397E
# B21: UGT76G1var68: UGT76G1 variant, mutations Q342K_G348P_I373L_Y397E (protein, UniProt Q6VAB4 1-458, looked up, variant Q342K G348P I373L Y397E)
# UDP-glycosyltransferase 76G1: B1 UDP-glycosyltransferase 76G1 with Y22F, I310V, Q342K, G348P, I373L, M375S, C377F, Y397E
# Experiment: Directed evolution of UGT76G1, Rebaudioside D to Rebaudioside M, round 1 (Example 26)
# Assay type: biochemical
# Details: 100 μL fresh lysate, 0.5 mM Rebaudioside D, 30° C., pH 7.2
# Method in brief: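 Cleared cell lysate (Bugbuster) incubated with 0.5 mM Rebaudioside D, 3 mM MgCl2 and 2.5 mM UDP-glucose in 50 mM phosphate pH 7.2 at 30 °C. Samples at 2, 4, 7 and 24 h analysed by HPLC-CAD for conversion and initial rate.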
Molecule,conversion Reb D to Reb M after 24 h [%],initial rate [Reb M area/min]
B1,1.9,7.9E+05
B2,,9.5E+06
B3,,4.6E+06
B4,9.3,4.1E+06
B5,0.7,4.3E+05
B6,1.0,2.2E+05
B7,0.4,4.1E+04
B8,,4.7E+07
B9,0.8,1.5E+05
B10,7.5,2.2E+06
B11,33.0,2.7E+07
B12,0.5,9.5E+04
B13,6.4,2.0E+06
B14,0.1,3.4E+04
B15,3.4,1.2E+06
B16,0.3,3.1E+04
B17,1.2,3.3E+05
B18,0.8,3.7E+05
B19,9.6,1.6E+06
B20,−2.1,−5.6E+05
B21,−1.4,−1.1E+05
